Patent US11542488B2, “Sortase synthesized chimeric antigen receptors” (Novartis AG, priority 2014, dated 2023)

Assays:
CD19 = target: T1, CD19 (Homo sapiens, UniProt P15391); experiment: Flow cytometry labeling of K562 cells with scFV19 conjugated to TAMRA; type: binding
T1 construct: expressed in transfected cells; host or cells: K562
T1 sequence (P15391 20-556): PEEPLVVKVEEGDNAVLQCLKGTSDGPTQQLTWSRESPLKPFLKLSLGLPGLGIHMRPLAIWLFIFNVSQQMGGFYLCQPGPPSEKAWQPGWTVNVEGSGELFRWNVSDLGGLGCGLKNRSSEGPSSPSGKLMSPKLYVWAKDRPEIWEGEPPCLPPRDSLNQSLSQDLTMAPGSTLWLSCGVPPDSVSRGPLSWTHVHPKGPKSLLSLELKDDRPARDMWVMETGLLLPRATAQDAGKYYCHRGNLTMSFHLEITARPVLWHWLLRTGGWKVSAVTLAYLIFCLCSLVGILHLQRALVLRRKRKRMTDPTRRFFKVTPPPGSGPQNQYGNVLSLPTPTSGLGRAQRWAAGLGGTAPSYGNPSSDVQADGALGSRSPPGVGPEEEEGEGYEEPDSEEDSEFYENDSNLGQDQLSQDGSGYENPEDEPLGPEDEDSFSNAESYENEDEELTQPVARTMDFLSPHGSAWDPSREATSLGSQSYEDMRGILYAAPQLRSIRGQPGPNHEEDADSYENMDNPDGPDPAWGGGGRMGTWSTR
Description: As a control, scFV19 subjected to the same reaction conditions to label the scFV with TAMRA, but omitting sortase (scFV19.LPETG+TAMRA_not conjugated (SEQ ID NO: 112)) was used. Flow cytometry analysis comparing cell labeling is shown.
To determine whether the presence of the sortase-recognition motif interferes with the ability of the scFV19 to recognize CD19, the scFV19.LPETGG.His8 (“LPETGG” and “His8” disclosed as SEQ ID NOS 21 and 111, respectively) was labeled with the G3K(TAMRA) peptide (SEQ ID NO:23) using the mutant sortase A as described in Example 1. […] Upon reaction, each of the preparations were filtered through a desalting column to remove unreacted G3K(TAMRA) peptide (SEQ ID NO: 23). Different concentrations of the scFV19.LPETG3K(TAMRA) conjugate (“LPETG3K” disclosed as SEQ ID NO: 250) and unconjugated control were then used to label untransduced K562 cells or K562 overexpressing CD19. […] Thus, the results presented herein confirm that the scFV19.LPETGG.His8 substrate (“LPETGG” and “His8” disclosed as SEQ ID NOS 21 and 111, respectively) for sortase is functional and that the sortase labeling strategy can be used to create new tools for FACS staining.

[1] = tested on: scFV directed to CD19 harboring a LPXTG sortase-recognition motif (scFV19); experiment: Sortase-mediated labeling of scFV19 with GGGK(TAMRA) peptide, reducing SDS-PAGE and fluorescent scanning; type: biochemical; settings: for calcium requirement for labeling of scFV19 with TAMRA peptide: absence or presence of 10 mM calcium
Description: Characterization of the enzyme was initially done in vitro using purified proteins. As the reaction substrate, a scFV directed to CD19 (scFV19) comprising a sortase A recognition motif (LPETGG, SEQ ID NO: 21) and a His8 (SEQ ID NO: 111) purification handle at the C-terminus (also referred to herein as scFv19.LPETGG.His8 (“LPETGG” and “His8” disclosed as SEQ ID NOS 21 and 111, respectively)) was cloned, expressed, and purified. This is the same scFV19 that was used in subsequent examples to test site-specific attachment to live cells using sortase:
As a nucleophile for these test reactions fluorescently labeled peptide: GGGK(TAMRA) (KRUEGANA-001-EXP022) (SEQ ID NO:23) was synthesized and purified. The fluorophore moiety allowed for convenient monitoring of the reaction by SDS-PAGE followed by fluorescent scanning.
The activities of mutant and wild-type (SrtA aureus_His6SrtA26-206 (“His6” disclosed as SEQ ID NO: 110)) sortases were compared side-by-side in the absence or presence of 10 mM calcium in 50 mM Tris-Cl, pH 7.4, 150 mM NaCl buffer, using final concentrations of 40 μM sortase, 20 μM scFV.LPETG.His8 (“LPETG” and “His8” disclosed as SEQ ID NOS 112 and 111, respectively), and 1 mM GGGK(TAMRA) (SEQ ID NO:23). The reactions were incubated at 37° for different periods of time (as indicated in FIG. 2), and analyzed by reducing SDS-PAGE followed by fluorescent scanning (using a ChemiDoc gel imaging system from BioRad) and coomassie staining.
The activity of mutant sortase A was active in culture media (RMPI supplemented with 1% FBS) was determined using the same reaction conditions as in Example 2. The presence of the fluorescent bands indicates the successful coupling of scFv19 to the TAMRA-labeled peptide in the presence of cell culture media. […] As in Example 2, the reaction was complete upon 45′ incubation at 37° C. (FIG. 3). […]

[2] = 40 μM sortase, 20 μM scFV, 1 mM GGGK(TAMRA), 37°

B1: scFV19.LPETG3K(TAMRA) conjugate (conjugate)
scFv: EIVMTQSPATLSLSPGERATLSCRASQDISKYLNWYQQKPGQAPRLLIYHTSRLHSGIPARFSGSGSGTDYTLTISSLQPEDFAVYFCQQGNTLPYTFGQGTKLEIKGGGGSGGGGSGGGGSQVQLQESGPGLVKPSETLSLTCTVSGVSLPDYGVSWIRQPPGKGLEWIGVIWGSETTYYSSSLKSRVTISKDNSKNQVSLKLSSVTAADTAVYYCAKHYYYGGSYAMDYWGQGTLVTVSSLPETGGGK
CD19; untransduced K562 cells or K562 overexpressing CD19, 30 min at 4° C., control reaction without sortase
  cell labeling by flow cytometry: cell labeling was observed only with the conjugate and only on K562 cells expressing CD19

B2: mutant sortase A: S. aureus Sortase A mutant lacking the N-terminal 59 amino acids, calcium independent and faster (SEQ ID NO: 4) (protein)
chain: MQAKPQIPKDKSKVAGYIEIPDADIKEPVYPGPATREQLNRGVSFAKENQSLDDQNISIAGHTFIDRPNYQFTNLKAAKKGSMVYFKVGNETRKYKMTSIRNVKPTAVEVLDEQKGKDKQLTLITCDDYNEETGVWETRKIFVATEVKLEHHHHHH
[1]; [2]
  incubation time at which fluorescence was demonstrated: ≤ 15 min
  calcium requirement for labeling of scFV19 with TAMRA peptide: regardless of whether calcium was present
[1]; 120 μM versus 40 μM sortase
  time to same labeling proportion with three-fold higher enzyme concentration: half of the time
[1]; 50 mM Tris-Cl, pH 7.4, 150 mM NaCl buffer, 37° C.
  incubation time for complete labeling of scFV19 with TAMRA peptide: 45 ′
[1]; 37°
  reaction speed compared with wild-type sortase: faster
[1]; RPMI + 1% FBS
  specificity: serum proteins labeled with fluorophore: no proteins from the serum
[1]; RPMI supplemented with 1% FBS
  activity in culture media: active
[1]; all three timepoints
  fluorescence compared to reactions containing wild-type sortase: Increased fluorescence
[1]; culture media (RPMI + 1% FBS), 37° C.
  incubation time for complete reaction: 45 ′
[1]; reaction kinetics and fluorescence intensity
  labeling differences between reactions in buffer or in culture media: No major labeling differences

B3: wild-type sortase: wild-type S. aureus sortase A (His6SrtA26-206) (protein, UniProt Q2FV99 26-206, looked up, fragment)
chain: KPHIDNYLHDKDKDEKIEQYDKNVKEQASKDKKQQAKPQIPKDKSKVAGYIEIPDADIKEPVYPGPATPEQLNRGVSFAEENESLDDQNISIAGHTFIDRPNYQFTNLKAAKKGSMVYFKVGNETRKYKMTSIRDVKPTDVGVLDEQKGKDKQLTLITCDDYNEKTGVWEKRKIFVATEVK
modifications: His6 tag
[1]; [2]
  fluorescence at 15 minutes of incubation: no fluorescence was detected
  calcium requirement for labeling of scFV19 with TAMRA peptide: essential

B4: scFV19.LPETGG.His8: scFV directed to CD19 comprising a sortase A recognition motif (LPETGG) and a His8 handle at the C-terminus (SEQ ID NO: 22) (protein)
scFv: METDTLLLWVLLLWVPGSTGEIVMTQSPATLSLSPGERATLSCRASQDISKYLNWYQQKPGQAPRLLIYHTSRLHSGIPARFSGSGSGTDYTLTISSLQPEDFAVYFCQQGNTLPYTFGQGTKLEIKGGGGSGGGGSGGGGSQVQLQESGPGLVKPSETLSLTCTVSGVSLPDYGVSWIRQPPGKGLEWIGVIWGSETTYYSSSLKSRVTISKDNSKNQVSLKLSSVTAADTAVYYCAKHYYYGGSYAMDYWGQGTLVTVSSLPETGGLDVLFEGPHHHHHHHH
modifications: C-terminal LPETGG sortase motif and His8 tag
CD19; K562 cells expressing CD19
  functionality of scFV19 carrying the sortase-recognition motif (recognition of CD19): functional
